Test results from patent EP1379283B1, “IDENTIFICATION OF TARGET-SPECIFIC FOLDING SITES IN PEPTIDES AND PROTEINS” (Palatin Technologies, Inc., priority 2000, dated 2002).
Square brackets hold non-standard residues; d marks the D form. Ends that are not written are not given here. * marks the point of attachment. Cyclohexylacetyl(1-SH) = O=C(CC1(S)CCCCC1)*; Cyclohexylacetyl = O=C(CC1CCCCC1)*; dChg = N[C@@H](C(=O)O)C1CCCCC1; Chg = N[C@H](C(=O)O)C1CCCCC1; Nle = CCCC[C@H](N)C(=O)O; Orn = NCCC[C@H](N)C(=O)O; Dap = NC[C@H](N)C(=O)O

How the values were obtained:
[1] = target: MC1-R of B-16 mouse melanoma cells (mouse) (UniProt Q01727); assay: competition with 0.4 nM 125I-NDP-alpha-MSH on B-16 mouse melanoma cell membranes, metallopeptide at 1 µM
[2] = target: oxytocin receptor of rat uterus cell membranes (rat) (UniProt P70536); assay: competition with 3H-oxytocin on rat uterus membranes, metallopeptide at 1 µM
[3] = target: vasopressin-1 receptor of rat liver cell membranes (rat) (UniProt P30560); assay: competition with 3H-vasopressin-1 antagonist on rat liver membranes, metallopeptide at 1 µM
hMC3-R (human) = hMC3-R (human) (UniProt P41968); assay: competition with 0.4 nM 125I-NDP-alpha-MSH on hMC3-R membranes, metallopeptide at 1 µM
hMC4-R (human) = hMC4-R (human) (UniProt P32245); assay: competition with 0.4 nM 125I-NDP-alpha-MSH on hMC4-R membranes, metallopeptide at 1 µM
hMC5-R (human) = hMC5-R (human) (UniProt P33032); assay: competition with 0.4 nM 125I-NDP-alpha-MSH on hMC5-R membranes, metallopeptide at 1 µM
Chain of hMC5-R (human) (P33032 whole entry): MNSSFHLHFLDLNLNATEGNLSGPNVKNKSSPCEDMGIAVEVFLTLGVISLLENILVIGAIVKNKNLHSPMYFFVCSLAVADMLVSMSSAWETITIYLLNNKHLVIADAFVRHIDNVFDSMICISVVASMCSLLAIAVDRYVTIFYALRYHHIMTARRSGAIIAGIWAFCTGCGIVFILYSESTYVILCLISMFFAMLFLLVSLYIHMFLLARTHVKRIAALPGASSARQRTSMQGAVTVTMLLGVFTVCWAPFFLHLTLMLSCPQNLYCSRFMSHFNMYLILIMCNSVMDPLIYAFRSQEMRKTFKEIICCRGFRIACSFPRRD

Chain of vasopressin-1 receptor of rat liver cell membranes (rat) (P30560 whole entry): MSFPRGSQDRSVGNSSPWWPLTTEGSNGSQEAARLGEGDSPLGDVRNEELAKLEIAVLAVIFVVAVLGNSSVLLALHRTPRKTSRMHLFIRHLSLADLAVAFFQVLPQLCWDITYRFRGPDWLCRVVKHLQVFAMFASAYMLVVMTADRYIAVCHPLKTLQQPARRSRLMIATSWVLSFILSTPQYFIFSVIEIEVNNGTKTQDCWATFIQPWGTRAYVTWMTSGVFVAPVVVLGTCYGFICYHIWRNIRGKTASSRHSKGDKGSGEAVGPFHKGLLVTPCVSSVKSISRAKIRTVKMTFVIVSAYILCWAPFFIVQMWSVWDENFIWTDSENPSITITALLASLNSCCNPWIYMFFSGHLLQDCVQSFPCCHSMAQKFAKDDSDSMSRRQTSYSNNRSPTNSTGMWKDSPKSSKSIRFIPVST
Chain of hMC4-R (human) (P32245 whole entry): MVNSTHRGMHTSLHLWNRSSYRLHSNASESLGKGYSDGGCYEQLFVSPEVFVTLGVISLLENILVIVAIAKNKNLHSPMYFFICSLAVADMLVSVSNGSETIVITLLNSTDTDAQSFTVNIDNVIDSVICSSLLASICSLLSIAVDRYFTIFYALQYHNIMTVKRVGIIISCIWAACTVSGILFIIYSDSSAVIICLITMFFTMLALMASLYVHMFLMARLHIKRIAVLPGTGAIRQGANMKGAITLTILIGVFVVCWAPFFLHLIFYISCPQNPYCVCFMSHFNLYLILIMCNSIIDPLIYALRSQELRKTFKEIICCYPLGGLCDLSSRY
Chain of MC1-R of B-16 mouse melanoma cells (mouse) (Q01727 whole entry): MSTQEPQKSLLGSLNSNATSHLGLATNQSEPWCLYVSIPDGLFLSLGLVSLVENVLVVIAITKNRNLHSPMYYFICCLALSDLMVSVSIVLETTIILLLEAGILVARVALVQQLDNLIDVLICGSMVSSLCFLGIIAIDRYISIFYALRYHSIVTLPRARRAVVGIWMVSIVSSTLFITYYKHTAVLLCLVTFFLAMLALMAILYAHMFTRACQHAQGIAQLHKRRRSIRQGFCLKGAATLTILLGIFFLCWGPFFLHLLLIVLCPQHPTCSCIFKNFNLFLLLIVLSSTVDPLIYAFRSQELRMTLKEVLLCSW
Chain of oxytocin receptor of rat uterus cell membranes (rat) (P70536 whole entry): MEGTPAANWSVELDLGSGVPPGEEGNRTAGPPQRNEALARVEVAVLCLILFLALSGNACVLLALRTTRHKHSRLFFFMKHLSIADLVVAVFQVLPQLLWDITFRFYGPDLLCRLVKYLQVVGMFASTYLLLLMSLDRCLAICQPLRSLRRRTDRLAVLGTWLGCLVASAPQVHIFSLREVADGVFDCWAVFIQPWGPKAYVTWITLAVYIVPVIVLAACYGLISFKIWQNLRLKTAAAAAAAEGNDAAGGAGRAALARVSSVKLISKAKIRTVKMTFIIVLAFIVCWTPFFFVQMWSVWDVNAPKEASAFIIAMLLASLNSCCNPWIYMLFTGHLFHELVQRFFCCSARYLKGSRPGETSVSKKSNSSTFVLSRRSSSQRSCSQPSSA
Chain of hMC3-R (human) (P41968 whole entry): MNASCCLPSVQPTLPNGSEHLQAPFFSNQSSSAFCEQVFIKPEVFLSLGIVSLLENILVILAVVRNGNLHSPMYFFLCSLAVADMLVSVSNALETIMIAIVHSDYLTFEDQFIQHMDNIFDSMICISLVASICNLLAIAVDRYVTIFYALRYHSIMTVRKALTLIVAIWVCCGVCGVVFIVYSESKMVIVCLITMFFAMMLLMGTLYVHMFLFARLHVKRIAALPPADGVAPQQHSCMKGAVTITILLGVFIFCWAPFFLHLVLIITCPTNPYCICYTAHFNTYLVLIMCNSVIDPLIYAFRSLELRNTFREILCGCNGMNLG

Binder	% Inhibition at 1 µM [1]	% Inhibition at 1 µM [2]	% Inhibition at 1 µM [3]	% Inhibition at 1 µM (hMC3-R (human))	% Inhibition at 1 µM (hMC4-R (human))	% Inhibition at 1 µM (hMC5-R (human))
XAHFRCW (N-terminal acetyl; X at 1 = Nle; D-Phe at 4; Cys 6 complexed to a rhenium-oxo (Re) metal ion; C-terminal amide) [Re-complexed Ac-Nle-Ala-His-D-Phe-Arg-Cys-Trp-NH2]	96%					
[dChg][dW]CIT[Dap]AP[Orn]-NH2 (bridge (positions not given here); not fully specified (bridges); printed as Re-complexed D-Chg-D-Trp-Cys-Ile-Thr-Dap-Ala-Pro-Orn-NH2; also: oxorhenium(V) metal complex) [Re-complexed D-Chg-D-Trp-Cys-Ile-Thr-Dap-Ala-Pro-Orn-NH2]		0%	8%			
Ac-[Nle]ACH[dF]RW-NH2 (bridge (positions not given here) via ReOCl3(PPh3)2; also: oxorhenium(V) N3S1 metal chelate (X-X-Cys)) [Re-complexed Ac-Nle-Ala-Cys-His-D-Phe-Arg-Trp-NH2]	96%			47%	71%	64%
Cyclohexylacetyl-[dW]IT[Dap]AA[Orn]C-NH2 (numbers in words are those of the source; also: rhenium-oxo (Re(V)=O) complex at Cys9) [Re-complexed Caca-D-Trp-Ile-Thr-Dap-Ala-Ala-Orn-Cys-NH2]		0%	23%			
Cyclohexylacetyl-[dW]IT[Dap]AAC[Orn]-NH2 (numbers in words are those of the source; also: rhenium-oxo (Re(V)=O) complex at Cys8) [Re-complexed Caca-D-Trp-Ile-Thr-Dap-Ala-Ala-Cys-Orn-NH2]		0%	0%			
Cyclohexylacetyl-[dW]ITC[Dap]AP[Orn]-NH2 (not fully specified (bridges); printed as Caca-D-Trp-*Ile-Thr-Cys*-Dap-Ala-Pro-Orn-NH₂; numbers in words are those of the source; also: Cys5 complexed to rhenium-oxo (Re=O)) [Re-complexed Caca-D-Trp-Ile-Thr-Cys-Dap-Ala-Pro-Orn-NH2]		0%	0%			
Cyclohexylacetyl-[dW]IT[Dap]CAP[Orn]-NH2 (not fully specified (bridges); printed as Caca-D-Trp-Ile-*Thr-Dap-Cys*-Ala-Pro-Orn-NH₂; numbers in words are those of the source; also: Cys6 complexed to rhenium-oxo (Re=O)) [Re-complexed Caca-D-Trp-Ile-Thr-Dap-Cys-Ala-Pro-Orn-NH2]		9%	22%			
Cyclohexylacetyl-[dW]ICT[Dap]AP[Orn]-NH2 (not fully specified (bridges); printed as Caca-D-*Trp-Ile-Cys*-Thr-Dap-Ala-Pro-Orn-NH₂; numbers in words are those of the source; also: Cys4 complexed to rhenium-oxo (Re=O)) [Re-complexed Caca-D-Trp-Ile-Cys-Thr-Dap-Ala-Pro-Orn-NH2]		0%	52%			
Cyclohexylacetyl-[dW]IT[Dap]ACP[Orn]-NH2 (not fully specified (bridges); printed as Caca-D-Trp-Ile-Thr-*Dap-Ala-Cys*-Pro-Orn-NH₂; numbers in words are those of the source; also: Cys7 complexed to rhenium-oxo (Re=O)) [Re-complexed Caca-D-Trp-Ile-Thr-Dap-Ala-Cys-Pro-Orn-NH2]		0%	0%			
Ac-[Nle]AH[dF]RWC-NH2 (bridge (positions not given here) via ReOCl3(PPh3)2; also: oxorhenium(V) metal complex) [Re-complexed Ac-Nle-Ala-His-D-Phe-Arg-Trp-Cys-NH2]	91%			70%	98%	93%
[Chg][dW]CIT[Dap]AP[Orn]-NH2 (not fully specified (bridges); printed as Re-complexed Chg-D-Trp-Cys-Ile-Thr-Dap-Ala-Pro-Orn-NH2; also: Cys3 complexed to rhenium-oxo (Re=O)) [Re-complexed Chg-D-Trp-Cys-Ile-Thr-Dap-Ala-Pro-Orn-NH2]		0%	0%			
{Cyclohexylacetyl(1-SH)}-[dW]CIT[Dap]AP[Orn]-NH2 (not fully specified (bridges); printed as *Pmp-D-Trp-Cys*-Ile-Thr-Dap-Ala-Pro-Orn-NH₂; numbers in words are those of the source; also: Cys3 complexed to rhenium-oxo (Re=O)) [Re-complexed Pmp-D-Trp-Cys-Ile-Thr-Dap-Ala-Pro-Orn-NH2]		0%	23%			
Cyclohexylacetyl-[dW]IT[Dap]ACA[Orn]-NH2 (not fully specified (bridges); printed as Caca-D-Trp-Ile-Thr-*Dap-Ala-Cys*-Ala-Orn-NH₂; numbers in words are those of the source; also: Cys7 complexed to rhenium-oxo (Re=O)) [Re-complexed Caca-D-Trp-Ile-Thr-Dap-Ala-Cys-Ala-Orn-NH2]		0%	0%			
Ac-[Nle]AHC[dF]RW-NH2 (bridge (positions not given here) via ReOCl3(PPh3)2; also: oxorhenium(V) metal complex) [Re-complexed Ac-Nle-Ala-His-Cys-D-Phe-Arg-Trp-NH2]	84%			9%	75%	58%
Ac-[Nle]AH[dF]CRW-NH2 (bridge (positions not given here) via ReOCl3(PPh3)2; also: oxorhenium(V) metal complex) [Re-complexed Ac-Nle-Ala-His-D-Phe-Cys-Arg-Trp-NH2]	93%			15%	66%	57%
